Results as given in article PMC8387964 (2021).

Assays:
Rac1 [1] = target: Rac1 (Homo sapiens, UniProt P63000)
Rac1 [2] = target: Rac1 (Homo sapiens, UniProt P63000, Rac1 acetylated at K166)

B1: p67phox (protein)
chain: MSLVEAISLWNEGVLAADKKDWKGALDAFSAVQDPHSRICFNIGCMYTILKNMTEAEKAFTRSINRDKHLAVAYFQRGMLYYQTEKYDLAIKDLKEALIQLRGNQLIDYKILGLQFKLFACEVLYNIAFMYAKKEEWKKAEEQLALATSMKSEPRHSKIDKAMECVWKQKLYEPVVIPVGKLFRPNERQVAQLAKKDYLGKATVVASVVDQDSFSGFAPLQPQAAEPPPRPKTPEIFRALEGEAHRVLFGFVPETKEELQVMPGNIVFVLKKGNDNWATVMFNGQKGLVPCNYLEPVELRIHPQQQPQEESSPQSDIPAPPSSKAPGRPQLSPGQKQKEEPKEVKLSVPMPYTLKVHYKYTVVMKTQPGLPYSQVRDMVSKKLELRLEHTKLSYRPRDSNELVPLSEDSMKDAWGQVKNYCLTLWCENTVGDQGFPDEPKESEKADANNQTTEPQLKKGSQVEALFSYEATQPEDLEFQEGDIILVLSKVNEEWLEGECKGKVGIFPKVFVEDCATTDLESTRREV
Kd (Rac1 [1]): 2.35 µM
Kd (Rac1 [2]): 0.109 µM
